According to patent publication US20100204091:

Molecular target: T1, SIVA2
T1 chain: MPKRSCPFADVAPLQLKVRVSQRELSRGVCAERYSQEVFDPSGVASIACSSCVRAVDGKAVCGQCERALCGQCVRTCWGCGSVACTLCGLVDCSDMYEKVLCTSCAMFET

B1: NF-κB-inducing kinase, NIK, (MAP3K14) (protein)
chain: MAVMEMACPGAPGSAVGQQKELPKAKEKTPPLGKKQSSVYKLEAVEKSPVFCGKWEILNDVITKGTAKEGSEAGPAAISIIAQAECENSQEFSPTFSERIFIAGSKQYSQSESLDQIPNNVAHATEGKMARVCWKGKRRSKARKKRKKKSSKSLAHAGVALAKPLPRTPEQESCTIPVQEDESPLGAPYVRNTPQFTKPLKEPGLGQLCFKQLGEGLRPALPRSELHKLISPLQCLNHVWKLHHPQDGGPLPLPTHPFPYSRLPHPFPFHPLQPWKPHPLESFLGKLACVDSQKPLPDPHLSKLACVDSPKPLPGPHLEPSCLSRGAHEKFSVEEYLVHALQGSVSSGQAHSLTSLAKTWAARGSRSREPSPKTEDNEGVLLTEKLKPVDYEYREEVHWATHQLRLGRGSFGEVHRMEDKQTGFQCAVKKVRLEVFRAEELMACAGLTSPRIVPLYGAVREGPWVNIFMELLEGGSLGQLVKEQGCLPEDRALYYLGQALEGLEYLHSRRILHGDVKADNVLLSSDGSHAALCDFGHAVCLQPDGLGKSLLTGDYIPGTETHMAPEVVLGRSCDAKVDVWSSCCMMLHMLNGCHPWTQFFRGPLCLKIASEPPPVREIPPSCAPLTAQAIQEGLRKEPIHRVSAAELGGKVNRALQQVGGLKSPWRGEYKEPRHPPPNQANYHQTLHAQPRELSPRAPGPRPAEETTGRAPKLQPPLPPEPPEPNKSPPLTLSKEESGMWEPLPLSSLEPAPARNPSSPERKATVPEQELQQLEIELFLNSLSQPFSLEEQEQILSCLSIDSLSLSDDSEKNPSKASQSSRDTLSSGVHSWSSQAEARSSSWNMVLARGRPTDTPSYFNGVKVQIQSLNGEHLHIREFHRVKVGDIATGISSQIPAAAFSLVTKDGQPVRYDMEVPDSGIDLQCTLAPDGSFAWSWRVKHGQLENRP
  in vitro kinase assay (phosphorylation of SIVA2): NIK readily phosphorylated SIVA2
